T1: AtARF5-DBD (Arabidopsis thaliana, UniProt P93024 1-390)
T1 sequence: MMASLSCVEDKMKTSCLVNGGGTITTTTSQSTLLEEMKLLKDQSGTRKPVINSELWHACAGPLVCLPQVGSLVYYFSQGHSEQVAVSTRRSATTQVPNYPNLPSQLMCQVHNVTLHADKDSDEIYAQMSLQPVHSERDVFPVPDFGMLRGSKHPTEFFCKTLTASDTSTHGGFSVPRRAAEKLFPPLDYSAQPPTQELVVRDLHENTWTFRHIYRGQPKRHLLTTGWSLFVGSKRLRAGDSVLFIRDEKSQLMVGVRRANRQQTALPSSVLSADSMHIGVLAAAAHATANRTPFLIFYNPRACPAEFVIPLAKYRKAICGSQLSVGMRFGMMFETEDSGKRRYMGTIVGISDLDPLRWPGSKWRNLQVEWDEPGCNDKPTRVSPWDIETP

T2: AtARF1-DBD (Arabidopsis thaliana, UniProt Q8L7G0 1-355)
T2 sequence: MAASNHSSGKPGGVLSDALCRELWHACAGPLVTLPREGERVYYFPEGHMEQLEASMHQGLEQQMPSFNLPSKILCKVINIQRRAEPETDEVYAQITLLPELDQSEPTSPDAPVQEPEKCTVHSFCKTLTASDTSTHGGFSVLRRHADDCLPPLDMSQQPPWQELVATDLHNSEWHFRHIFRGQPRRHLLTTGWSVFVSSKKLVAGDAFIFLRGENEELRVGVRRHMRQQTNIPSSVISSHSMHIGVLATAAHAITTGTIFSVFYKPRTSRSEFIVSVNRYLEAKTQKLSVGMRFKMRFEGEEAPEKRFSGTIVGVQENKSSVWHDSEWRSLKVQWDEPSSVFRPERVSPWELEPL


Assays:
AtARF5-DBD [1] = target: T1, AtARF5-DBD; assay: size-exclusion chromatography
AtARF5-DBD [2] = target: T1, AtARF5-DBD; assay: smFRET titration
AtARF1-DBD = target: T2, AtARF1-DBD; assay: smFRET titration

Row | Binder | binding result (AtARF5-DBD [1]) | Kd (AtARF5-DBD [2]) | Kd (AtARF1-DBD)
1 | pTMO5Δ2-IR7 (dsDNA) DNA 1: TTTTTTTTGGTCGGTTTTTTA DNA 2: TAAAAAACCGACCAAAAAAAA | no binding |  | 
2 | pTMO5Δ1-IR7 (dsDNA) DNA 1: TGGTCTCTGGTCGGTTTTTTA DNA 2: TAAAAAACCGACCAGAGACCA | no binding |  | 
3 | IR8 (dsDNA) DNA 1: ACTCTTTTTTGTCGGGGAAAAGGCCGACAATCCGTGTG DNA 2: CACACGGATTGTCGGCCTTTTCCCCGACAAAAAAGAGT |  | 9 nM | 140 nM
4 | DR5 (dsDNA) DNA 1: ACTGCCTTTTGTCGGCCTTTTGTCGGATCCGTGTG DNA 2: CACACGGATCCGACAAAAGGCCGACAAAAGGCAGT |  | 60 nM | 570 nM
